Results reported in patent US9958461B2, “Detection of protein to protein interactions” (THE GOVERNING COUNCIL OF THE UNIVERSITY OF TORONTO, priority 2013, dated 2018).

B1: BCAR3 (protein, UniProt O75815 2-825, looked up)
Breast cancer anti-estrogen …: AAGKFASLPRNMPVNHQFPLASSMDLLSSRSPLAEHRPDAYQDVSIHGTLPRKKKGPPPIRSCDDFSHMGTLPHSKSPRQNSPVTQDGIQESPWQDRHGETFTFRDPHLLDPTVEYVKFSKERHIMDRTPEKLKKELEEELLLSSEDLRSHAWYHGRIPRQVSENLVQRDGDFLVRDSLSSPGNFVLTCQWKNLAQHFKINRTVLRLSEAYSRVQYQFEMESFDSIPGLVRCYVGNRRPISQQSGAIIFQPINRTVPLRCLEEHYGTSPGQAREGSLTKGRPDVAKRLSLTMGGVQAREQNLPRGNLLRNKEKSGSQPACLDHMQDRRALSLKAHQSESYLPIGCKLPPQSSGVDTSPCPNSPVFRTGSEPALSPAVVRRVSSDARAGEALRGSDSQLCPKPPPKPCKVPFLKVPSSPSAWLNSEANYCELNPAFATGCGRGAKLPSCAQGSHTELLTAKQNEAPGPRNSGVNYLILDDDDRERPWEPAAAQMEKGQWDKGEFVTPLLETVSSFRPNEFESKFLPPENKPLETAMLKRAKELFTNNDPKVIAQHVLSMDCRVARILGVSEEMRRNMGVSSGLELITLPHGHQLRLDIIERHNTMAIGIAVDILGCTGTLEDRAATLSKIIQVAVELKDSMGDLYSFSALMKALEMPQITRLEKTWTALRHQYTQTAILYEKQLKPFSKLLHEGRESTCVPPNNVSVPLLMPLVTLMERQAVTFEGTDMWEKNDQSCEIMLNHLATARFMAEAADSYRMNAERILAGFQPDEEMNEICKTEFQMRLLWGSKGAQVNQTERYEKFNQILTALSRKLEPPPVKQAEL
B2: TXN (protein, UniProt P10599 2-105, looked up)
Thioredoxin: VKQIESKTAFQEALDAAGDKLVVVDFSATWCGPCKMIKPFFHSLSEKYSNVIFLEVDVDDCQDVASECEVKCMPTFQFFKKGQKVGEFSGANKEKLEATINELV
B3: PTK2 (protein, UniProt Q05397 2-1052, looked up)
Focal adhesion kinase 1: AAAYLDPNLNHTPNSSTKTHLGTGMERSPGAMERVLKVFHYFESNSEPTTWASIIRHGDATDVRGIIQKIVDSHKVKHVACYGFRLSHLRSEEVHWLHVDMGVSSVREKYELAHPPEEWKYELRIRYLPKGFLNQFTEDKPTLNFFYQQVKSDYMLEIADQVDQEIALKLGCLEIRRSYWEMRGNALEKKSNYEVLEKDVGLKRFFPKSLLDSVKAKTLRKLIQQTFRQFANLNREESILKFFEILSPVYRFDKECFKCALGSSWIISVELAIGPEEGISYLTDKGCNPTHLADFTQVQTIQYSNSEDKDRKGMLQLKIAGAPEPLTVTAPSLTIAENMADLIDGYCRLVNGTSQSFIIRPQKEGERALPSIPKLANSEKQGMRTHAVSVSETDDYAEIIDEEDTYTMPSTRDYEIQRERIELGRCIGEGQFGDVHQGIYMSPENPALAVAIKTCKNCTSDSVREKFLQEALTMRQFDHPHIVKLIGVITENPVWIIMELCTLGELRSFLQVRKYSLDLASLILYAYQLSTALAYLESKRFVHRDIAARNVLVSSNDCVKLGDFGLSRYMEDSTYYKASKGKLPIKWMAPESINFRRFTSASDVWMFGVCMWEILMHGVKPFQGVKNNDVIGRIENGERLPMPPNCPPTLYSLMTKCWAYDPSRRPRFTELKAQLSTILEEEKAQQEERMRMESRRQATVSWDSGGSDEAPPKPSRPGYPSPRSSEGFYPSPQHMVQTNHYQVSGYPGSHGITAMAGSIYPGQASLLDQTDSWNHRPQEIAMWQPNVEDSTVLDLRGIGQVLPTHLMEERLIRQQQEMEEDQRWLEKEERFLKPDVRLSRGSIDREDGSLQGPIGNQHIYQPVGKPDPAAPPKKPPRPGAPGHLGSLASLSSPADSYNEGVKLQPQEISPPPTANLDRSNDKVYENVTGLVKAVIEMSSKIQPAPPEEYVPMVKEVGLALRTLLATVDETIPLLPASTHREIEMAQKLLNSDLGELINKMKLAQQYVMTSLQQEYKKQMLTAAHALAVDAKNLLDVIDQARLKMLGQTRPH
B4: MED28 (protein, UniProt Q9H204 1-178, looked up)
Mediator of RNA polymerase II …: MAAPLGGMFSGQPPGPPQAPPGLPGQASLLQAAPGAPRPSSSTLVDELESSFEACFASLVSQDYVNGTDQEEIRTGVDQCIQKFLDIARQTECFFLQKRLQLSVQKPEQVIKEDVSELRNELQRKDALVQKHLTKLRHWQQVLEDINVQHKKPADIPQGSLAYLEQASANIPAPLKPT
B5: CRKL (protein, UniProt P46109 1-303, looked up)
Crk-like protein: MSSARFDSSDRSAWYMGPVSRQEAQTRLQGQRHGMFLVRDSSTCPGDYVLSVSENSRVSHYIINSLPNRRFKIGDQEFDHLPALLEFYKIHYLDTTTLIEPAPRYPSPPMGSVSAPNLPTAEDNLEYVRTLYDFPGNDAEDLPFKKGEILVIIEKPEEQWWSARNKDGRVGMIPVPYVEKLVRSSPHGKHGNRNSNSYGIPEPAHAYAQPQTTTPLPAVSGSPGAAITPLPSTQNGPVFAKAIQKRVPCAYDKTALALEVGDIVKVTRMNINGQWEGEVNGRKGLFPFTHVKIFDPQNPDENE
B6: WASL (protein, UniProt O00401 2-505, looked up)
Actin nucleation-promoting …: SSVQQQPPPPRRVTNVGSLLLTPQENESLFTFLGKKCVTMSSAVVQLYAADRNCMWSKKCSGVACLVKDNPQRSYFLRIFDIKDGKLLWEQELYNNFVYNSPRGYFHTFAGDTCQVALNFANEEEAKKFRKAVTDLLGRRQRKSEKRRDPPNGPNLPMATVDIKNPEITTNRFYGPQVNNISHTKEKKKGKAKKKRLTKADIGTPSNFQHIGHVGWDPNTGFDLNNLDPELKNLFDMCGISEAQLKDRETSKVIYDFIEKTGGVEAVKNELRRQAPPPPPPSRGGPPPPPPPPHNSGPPPPPARGRGAPPPPPSRAPTAAPPPPPPSRPSVAVPPPPPNRMYPPPPPALPSSAPSGPPPPPPSVLGVGPVAPPPPPPPPPPPGPPPPPGLPSDGDHQVPTTAGNKAALLDQIREGAQLKKVEQNSRPVSCSGRDALLDQIRQGIQLKSVADGQESTPPTPAPTSGIVGALMEVMQKRSKAIHSSDEDEDEDDEEDFEDDDEWED

target: T1, EGFR-L858R (Homo sapiens, UniProt P00533, L858R); assay: MaMTH EGFR-interactor screen, lentiviral preys against EGFR-L858R bait (interaction score); type: cell-based; conditions: MaMTH interaction score of prey with EGFR-L858R bait
T1 construct: with the advantage of testing full-length integral membrane proteins; (GGGGS)2 linker-Cub (human ubiquitin aa 35-76)-GAL4(1-147)-mNFkB(364-550) (C); expressed in transfected cells
Method in brief: (§1)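 Interaction score is the luciferase fold-change versus averaged negative controls (Fabp5, Pex19, Pex7, GABBR2), with >1 called interacting. Luciferase was measured 24 h after triplicate bait transfection. This followed single-copy prey transduction (MOI ~0.3-0.4) of GAL4UAS-luciferase HEK293T cells and ≥48 h puromycin selection.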

Row | EGFR-L858R mean | Molecule
1 | 1.06 | B1
2 | 7.03 | B2
3 | 5.59 | B3
4 | 1.14 | B4
5 | 13.65 | B5
6 | 1.93 | B6

target: T2, EGFR-Wt (Homo sapiens, UniProt P00533); assay: MaMTH EGFR-interactor screen, lentiviral preys against EGFR-wildtype bait (interaction score); type: cell-based; conditions: MaMTH interaction score of prey with EGFR-Wt bait, mean
T2 construct: with the advantage of testing full-length integral membrane proteins; (GGGGS)2 linker-Cub (human ubiquitin aa 35-76)-GAL4(1-147)-mNFkB(364-550) (C); expressed in transfected cells
Method in brief: as §1

Row | EGFR-Wt mean | Molecule
7 | 0.79 | B1
8 | 5.10 | B2
9 | 4.05 | B3
10 | 0.87 | B4
11 | 10.25 | B5
12 | 1.41 | B6

test system: EGFR-Wt; assay: as above; type: cell-based, human; conditions: ratio of EGFR-Wt mean to EGFR-L858R mean interaction score
Method in brief: as §1

Row | Molecule | Wt/L858R
13 | B1 | 0.75
14 | B2 | 0.73
15 | B3 | 0.72
16 | B4 | 0.76
17 | B5 | 0.75
18 | B6 | 0.73
